This note sets out measurements from US20060269536.

Data set [1] relates to substrate pentapeptide MTR↓SN.
In data set [2] the test system is substrate pentapeptide RR↓SID.
Data set [3] concerns substrate pentapeptide KLR↓TT.
Data set [4] relates to substrate pentapeptide RGR↓SE.
Data set [5] relates to substrate pentapeptide LR↓SRA.
In data set [6] the test system is substrate pentapeptide ER↓VSP.

As for human glandular kallikrein hK2, the “substrate phage display: peptide selected as cleaved by hK2 (scissile bond ↓)” value was “MTR↓SN” in data set [1]; “RR↓SID” in data set [2]; “KLR↓TT” in data set [3]; “RGR↓SE” in data set [4]; “LR↓SRA” in data set [5]; “ER↓VSP” in data set [6].
